Legend:
[1] = target: T1, α-1-antitrypsin (analyte of the SPR assay) (human, UniProt P01009 25-418); experiment: SPR; Biacore T200; biotinylated C3a immobilised by amine coupling on CM5 chip (800-1500 RU); serially diluted α-1-antitrypsin injected at 10 μl/minute in Dulbecco's PBS; regeneration 2.0 M KCl; blank surface subtracted; details: both partners purified
T1 construct: alpha-1-antitrypsin, human; May be the same preparation as m1 or the unlabelled form of m2; also called AAT

[2] = target: T2, NT-647 labelled recombinant α-1-antitrypsin (human, UniProt P01009 25-418, NT-647 label); experiment: MST; Monolith NT.115, LED 70%, MST power 20%; 0.5 μM NT-647 labelled α-1-antitrypsin incubated 30 min with C3a at 6 nM to 205 μM; details: both partners purified
T2 construct: alpha-1-antitrypsin, human, recombinant from E. coli (not glycosylated); In the functional row the recombinant protein was used without the label; also called NT-647 labeled AAT; source: E. coli recombinant system, purified in-house
T2 sequence (P01009 25-418): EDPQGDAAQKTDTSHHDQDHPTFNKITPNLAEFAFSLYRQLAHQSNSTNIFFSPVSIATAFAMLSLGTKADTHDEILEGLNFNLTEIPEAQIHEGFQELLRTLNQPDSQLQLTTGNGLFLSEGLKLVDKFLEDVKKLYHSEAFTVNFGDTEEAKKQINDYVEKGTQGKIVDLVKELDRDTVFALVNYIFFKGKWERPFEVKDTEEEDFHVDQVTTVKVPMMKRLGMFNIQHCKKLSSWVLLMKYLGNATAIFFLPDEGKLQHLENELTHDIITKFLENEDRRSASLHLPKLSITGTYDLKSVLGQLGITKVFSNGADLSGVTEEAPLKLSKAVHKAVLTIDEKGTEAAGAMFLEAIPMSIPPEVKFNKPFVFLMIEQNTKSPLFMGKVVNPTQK

T1 sequence (P01009 25-418): as above
Chain of C3a (P01024 672-748): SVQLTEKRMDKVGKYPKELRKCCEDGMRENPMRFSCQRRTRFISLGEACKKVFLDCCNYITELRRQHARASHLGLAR

Binder | Kd [1] | Kd [2]
Biotinylated-C3a (natural protein, biotin (biotinamidohexanoic acid 3-sulfo-N-hydroxysuccinimide ester, random, no more than one biotin per molecule of C3a), C3a anaphylatoxin, the cut product of complement C3; also called randomly biotinylated C3a; complement C3a; source: bought: Complement Technology Inc; biotinylated in-house) not shown | 7.53 µM | 
C3a (natural protein, C3a anaphylatoxin, the cut product of complement C3; also called complement C3a; complement anaphylatoxin C3a; source: bought: Complement Technology, Inc) not shown |  | 8.4 µM

— publication PMC6525112, “Vitamin D (1,25(OH)2D3) induces α-1-antitrypsin synthesis by CD4^+ T cells, which is required for 1,25(OH)2D3-driven IL-10” (The Journal of Steroid Biochemistry and Molecular Biology, 2019)
